Measurements taken from patent publication US20210032313A1 (Daiichi Sankyo, published 2021).
Where a chain is given by its changes, count along the chain named.

T1: KLK12 (human, UniProt Q9UKR0)
T1 construct: commercial enzyme (R&D Systems, 3095-SE); 0.1 µg/mL in the assay; substrate Boc-Val-Pro-Arg-AMC 100 µM; also called Human KLK12; hKLK12
T1 sequence (protease, looked up): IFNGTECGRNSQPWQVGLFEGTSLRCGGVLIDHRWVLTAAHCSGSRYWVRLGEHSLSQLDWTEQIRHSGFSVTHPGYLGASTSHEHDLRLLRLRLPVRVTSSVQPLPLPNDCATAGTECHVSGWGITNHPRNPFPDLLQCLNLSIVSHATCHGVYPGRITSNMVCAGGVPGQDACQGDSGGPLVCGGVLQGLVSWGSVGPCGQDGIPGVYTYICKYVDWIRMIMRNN

T2: mouse KLK14 (mouse, UniProt Q8CGR5 24-250)
T2 sequence: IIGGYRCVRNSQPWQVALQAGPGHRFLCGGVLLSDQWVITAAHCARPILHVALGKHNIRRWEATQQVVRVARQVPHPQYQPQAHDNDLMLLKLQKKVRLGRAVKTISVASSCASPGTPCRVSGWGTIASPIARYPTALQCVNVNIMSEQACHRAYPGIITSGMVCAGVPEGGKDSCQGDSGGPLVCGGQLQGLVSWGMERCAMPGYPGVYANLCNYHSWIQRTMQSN

T3: mouse KLK5 (mouse)
T3 chain: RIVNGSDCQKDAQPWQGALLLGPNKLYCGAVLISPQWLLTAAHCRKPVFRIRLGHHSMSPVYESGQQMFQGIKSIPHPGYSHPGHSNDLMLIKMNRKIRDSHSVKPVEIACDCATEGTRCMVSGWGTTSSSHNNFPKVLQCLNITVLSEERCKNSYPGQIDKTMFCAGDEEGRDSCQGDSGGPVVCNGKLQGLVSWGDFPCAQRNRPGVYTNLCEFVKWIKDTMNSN

T4: human KLK5 (human, UniProt Q9Y337 67-293)
T4 construct: also called hKLK5; active KLK5; not shown: C-terminal tag with His tag, encoded by primers 3/4
T4 sequence: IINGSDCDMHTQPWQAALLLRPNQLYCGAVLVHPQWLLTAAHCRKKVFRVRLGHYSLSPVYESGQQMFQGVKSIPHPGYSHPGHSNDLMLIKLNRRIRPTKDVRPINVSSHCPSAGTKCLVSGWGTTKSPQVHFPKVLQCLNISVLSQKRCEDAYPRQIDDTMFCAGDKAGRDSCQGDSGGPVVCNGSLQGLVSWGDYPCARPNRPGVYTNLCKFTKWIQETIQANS

T5: human KLK14 (human, UniProt Q9P0G3 25-251)
T5 sequence: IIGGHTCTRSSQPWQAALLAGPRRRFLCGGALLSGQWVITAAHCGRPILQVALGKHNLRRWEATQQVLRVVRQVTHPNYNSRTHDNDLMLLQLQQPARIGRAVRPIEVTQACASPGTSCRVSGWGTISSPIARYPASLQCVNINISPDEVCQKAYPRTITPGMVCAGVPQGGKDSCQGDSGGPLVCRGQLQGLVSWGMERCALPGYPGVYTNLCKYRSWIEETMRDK

B1: KLK5 inhibitory peptide K51072 (peptide)
chain: GPQFGLFSKYRTPNCQEDMTEYCARDFDPVCGSDMSTYANECTLCMKIREGGHNIKIIRNGPCGG
notes: SPINK2 mutant peptide made in E. coli
B2: KLK5 inhibitory peptide K50098 (peptide)
chain: GPQFGLFSKYRTPNCTSQTLGSCSREYDPVCGSDMSTYANECTLCMKIREGGHNIKIIRNGPCGG
notes: as for B1
B3: KLK5 inhibitory peptide K50032 (peptide)
chain: B2 chain with T16L, S17N, Q18W, L20D, G21H, S22Q, S24E, E26D
notes: as for B1
B4: KLK5 inhibitory peptide K50055 (peptide)
chain: B2 chain with T16A, S17N, Q18T, T19M, L20K, G21Q, S22D, S24T
notes: as for B1
B5: KLK5/KLK7 inhibitory peptide K51028 (peptide)
chain: GPQFGLFSKYRTPNCYQYRSKGCTHEYDPVCGSDMSTYANECTLCMKIREGGHNIKIIRNGPCGG
notes: as for B1
B6: KLK5 inhibitory peptide K50016 (peptide)
chain: B2 chain with T16S, S17Q, Q18W, T19Q, L20Y, G21S, S24D, E26V
notes: as for B1
B7: KLK5 inhibitory peptide K51090 (peptide)
chain: GPQFGLFSKYRTPNCDEIGKYGCGRSYDPVCGSDMSTYANECTLCMKIREGGHNIKIIRNGPCGG
notes: as for B1
B8: KLK5/KLK7 inhibitory peptide K51005 (peptide)
chain: B5 chain with Y16M, Y18H, R19A, S20R, K21Q, T24H, H25Y, E26D
notes: as for B1
B9: KLK5/KLK7 inhibitory peptide K50031 (peptide)
chain: B7 chain with D16G, I18Y, G19K, K20G, Y21R, G24Y, R25Y, S26H
notes: as for B1

These binders were tested against T1, KLK12 (assay: fluorogenic peptide substrate cleavage, 1 µM inhibitor).
Method: FIG. 3G includes graphs to evaluate the cross-reactivity of each inhibitory peptide with proteases, using the degradation of a peptide substrate as an index. For evaluating the Human KLK7 inhibitory activity, hKLK7 with a final concentration of 1 μg/mL and a substrate peptide Mca-Arg-Pro-Lys-Pro-Val-Glu-Nval-Trp-Arg-Lys (Dnp)-NH₂ (R&D Systems, Inc., ES002) with a final concentration of 20 μM were used. For evaluating the Human KLK8 inhibitory activity, hKLK8 (UniProt: 060259, prepared by the inventors) with a final concentration of 5 nM and a substrate peptide Boc-Val-Pro-Arg-AMC (R&D Systems, Inc., ES011) with a final concentration of 100 μM were used. For evaluating the Human KLK12 inhibitory activity, hKLK12 (R&D Systems, Inc., 3095-SE) with a final concentration of 0.1 μg/mL and a substrate peptide Boc-Val-Pro-Arg-AMC (R&D Systems, Inc., ES011) with a final concentration of 100 μM were used.
(§1) The specificities for other proteases were evaluated using the degradation of a substrate peptide as an index. As in the method described in (3-1), 25 μL each of a protease and a sample diluted with an assay buffer were mixed (to a final concentration of sample of 1 μM), followed by a reaction at 37° C. for 20 minutes. Thereafter, 50 μL of a substrate diluted with an assay buffer was added thereto, and the fluorescence signal was measured using Enspire (PerkinElmer). An assay buffer (50 mM Tris, 150 mM NaCl, pH 8.0) was used for the evaluation of the protease activity, and a PROTEOSAVE® SS96F black plate (Sumitomo Bakelite Co., Ltd.) was used for the reaction and the measurement. The combinations of the protease and the substrate used for the evaluation of the specificity were as follows.

| Binder | binding result |
| --- | --- |
| B1 | binds |
| B2 | binds |
| B3 | binds |
| B4 | binds |

Each binder was assayed against T2, mouse KLK14 (assay: cell-based or functional assay).

| Binder | IC50(nM) for mKLK14 [nM] |
| --- | --- |
| B5 | > 1000 |
| B1 | > 1000 |
| B2 | 547 |
| B6 | > 1000 |
| B7 | > 1000 |
| B8 | 214 |
| B9 | 244 |
| B3 | > 1000 |
| B4 | > 1000 |

Molecular target: T3, mouse KLK5
Test: cell-based or functional assay

| Binder | IC50(nM) for mKLK5 [nM] |
| --- | --- |
| B5 | < 0.5 |
| B1 | 2 |
| B2 | 14 |
| B6 | 15 |
| B7 | 2 |
| B8 | 48 |
| B9 | 40 |
| B3 | 127 |
| B4 | < 0.5 |

What follows are binders tested against mouse KLK7 (mouse, UniProt Q91VE3 26-249) (assay: cell-based or functional assay).
Sequence of mouse KLK7 (Q91VE3 26-249): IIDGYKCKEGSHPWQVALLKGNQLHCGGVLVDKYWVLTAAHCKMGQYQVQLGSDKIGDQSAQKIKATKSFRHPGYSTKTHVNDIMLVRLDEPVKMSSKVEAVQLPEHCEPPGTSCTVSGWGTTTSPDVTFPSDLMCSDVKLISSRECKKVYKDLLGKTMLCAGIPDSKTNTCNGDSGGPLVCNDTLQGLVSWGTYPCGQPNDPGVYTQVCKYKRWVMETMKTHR

| Binder | IC50(nM) for mKLK7 [nM] |
| --- | --- |
| B5 | 77 |
| B1 | 512 |
| B2 | > 1000 |
| B6 | > 1000 |
| B7 | 658 |
| B8 | 23 |
| B9 | 4 |
| B3 | > 1000 |
| B4 | > 1000 |

These binders were tested against T4, human KLK5 (assay: SPR, BIAcore T200; biotinylated KLK5 captured on chip, peptide as analyte; single cycle kinetics, 1:1 model).
Method: In order to measure the binding affinity of the KLK5 inhibitory peptides, surface plasmon resonance analysis was conducted using BIAcore T 200 (GE healthcare). A complementary strand of DNA of a streptavidin conjugate was captured by hybridization on Sensor Chip CAP (GE healthcare) on which single-stranded DNA immobilized. Next, KLK5 biotinylated using EZ-Link NHS-PEG4-Biotin (Thermo Fisher Scientific) was captured at a flow rate of 10 μL/min to immobilize about 10 RU. Thereafter, the KLK5 inhibitory peptide, serially diluted 2-fold with HBS-EP (0.625 to 10 nM), was added thereto as an analyte at a flow rate of 30 μL/min. In the BIAcore T 200 Evaluation software (version 2.0), kon and koff were calculated by analysis using Single cycle kinetics in a simple one-to-one Langmuir binding model. The dissociation constant KD was calculated as a ratio of koff/kₒₙ. Further, multiple KLK5 inhibitory peptides were measured by regenerating Sensor Chip CAP using a Regeneration buffer attached to a Biotin CAPture Kit (GE healthcare) and repeatedly capturing biotinylated KLK5.

| Binder | Kd [nM] | koff [s⁻¹] | kon [M⁻¹ s⁻¹] |
| --- | --- | --- | --- |
| B5 | 0.014 | 2e-05 | 1.5e+06 |
| B1 | 0.026 | 2.2e-05 | 840000 |
| B2 | 0.018 | 1.8e-05 | 1e+06 |
| B6 | 0.042 | 0.00029 | 7e+06 |
| B7 | 0.027 | 5.7e-05 | 2.1e+06 |
| B8 | 0.34 | 0.0012 | 3.5e+06 |
| B9 | 0.061 | 5e-05 | 820000 |
| B3 | 0.13 | 0.00027 | 2e+06 |
| B4 | 0.019 | 1.8e-05 | 980000 |

The binders below were run against bChymotrypsin (assay: fluorogenic peptide substrate cleavage, 1 µM inhibitor).
Method: FIG. 3A includes graphs to evaluate the cross-reactivity of each inhibitory peptide with proteases, using the degradation of a peptide substrate as an index. For evaluating the Bovine trypsin inhibitory activity, trypsin (Pierce, 20233) with a final concentration of 5 nM and a substrate peptide Boc-Val-Pro-Arg-AMC (R&D Systems, Inc., ES011) with a final concentration of 100 μM were used. For evaluating the Human trypsin inhibitory activity, trypsin (Sigma-Aldrich Co. LLC, T6424) with a final concentration of 1 nM and a substrate peptide Boc-Val-Pro-Arg-AMC (R&D Systems, Inc., ES011) with a final concentration of 100 μM were used. For evaluating the Bovine α-chymotrypsin inhibitory activity, chymotrypsin (Worthington Biochemical Corporation, LS001434) with a final concentration of 10 nM and a substrate peptide Suc-Leu-Leu-Val-Tyr-MCA (PEPTIDE […], INC., 3120-v) with a final concentration of 100 μM were used.
as §1

| Binder | binding result |
| --- | --- |
| B8 | binds |
| B9 | binds |

These binders were tested against T6, KLK4 (human, UniProt Q9Y5K2) in the same assay as above.
T6 construct: commercial enzyme (R&D Systems, 1719-SE); 1 µg/mL in the assay; substrate Boc-Val-Pro-Arg-AMC 100 µM; also called Human KLK4; hKLK4
T6 sequence (Q9Y5K2 31-254 limits assumed): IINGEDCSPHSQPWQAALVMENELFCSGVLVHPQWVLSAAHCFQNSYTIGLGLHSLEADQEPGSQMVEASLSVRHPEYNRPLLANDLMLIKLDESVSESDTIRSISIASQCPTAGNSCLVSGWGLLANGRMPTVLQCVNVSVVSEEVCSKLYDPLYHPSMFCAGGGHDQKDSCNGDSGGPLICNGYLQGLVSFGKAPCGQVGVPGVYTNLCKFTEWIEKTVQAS
Method: FIG. 3F includes graphs to evaluate the cross-reactivity of each inhibitory peptide with proteases, using the degradation of a peptide substrate as an index. For evaluating the Human KLK1 inhibitory activity, hKLK1 (R&D Systems, Inc., 2337-SE) with a final concentration of 0.1 μg/mL and a substrate peptide Pro-Phe-Arg-MCA (PEPTIDE […], INC., 3096-v) with a final concentration of 100 μM were used. For evaluating the Human KLK2 inhibitory activity, hKLK2 (R&D Systems, Inc., 4104-SE) with a final concentration of 2 μg/mL and a substrate peptide Pro-Phe-Arg-MCA (PEPTIDE […], INC., 3096-v) with a final concentration of 100 μM were used. For evaluating the Human KLK4 inhibitory activity, hKLK4 (R&D Systems, Inc., 1719-SE) with a final concentration of 1 μg/mL and a substrate peptide Boc-Val-Pro-Arg-AMC (R&D Systems, Inc., ES011) with a final concentration of 100 μM were used.
as §1

| Binder | binding result |
| --- | --- |
| B1 | binds |
| B2 | binds |
| B6 | binds |
| B7 | binds |
| B8 | binds |
| B4 | binds |

The binders below were run against T5, human KLK14 (assay: cell-based or functional assay).

| Binder | IC50(nM) for hKLK14 [nM] |
| --- | --- |
| B1 | 434 |
| B2 | 268 |
| B7 | > 1000 |
| B9 | > 1000 |
| B4 | > 1000 |

These binders were tested against human KLK7 (human, UniProt P49862 30-253) (assay: cell-based or functional assay).
Sequence of human KLK7 (P49862 30-253): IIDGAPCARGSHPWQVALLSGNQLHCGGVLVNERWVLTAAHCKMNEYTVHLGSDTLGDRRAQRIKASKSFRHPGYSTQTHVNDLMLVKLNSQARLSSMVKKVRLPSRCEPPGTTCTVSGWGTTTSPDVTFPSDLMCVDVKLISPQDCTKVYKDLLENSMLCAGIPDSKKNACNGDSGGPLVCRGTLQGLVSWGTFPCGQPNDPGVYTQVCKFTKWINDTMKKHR

| Binder | IC50(nM) for hKLK7 [nM] |
| --- | --- |
| B5 | 249 |
| B7 | > 1000 |
| B8 | 17 |
| B9 | 13 |

These binders were tested against T4, human KLK5 (assay: cell-based or functional assay).

| Binder | IC50(nM) for hKLK5 [nM] |
| --- | --- |
| B5 | 6.1 |
| B1 | 7 |
| B2 | 8.3 |
| B6 | 6.9 |
| B7 | 4.5 |
| B8 | 5.8 |
| B9 | 5.4 |
| B3 | 7.1 |
| B4 | 6.7 |
